# Measurements: paper PMC3834312
# Experiments:
# Assay in all cases: MODified Histone Peptide Array
# [1] = target: H2A K13ac (histone peptide array spots containing the mark); details: whole cell lysate from HEK293 cells transiently transfected; ECL plus western blot detecting reagent; read off a plot
# [2] = target: H2A K9ac (histone peptide array spots containing the mark); details: whole cell lysate from HEK293 cells transiently transfected; ECL plus western blot detecting reagent; read off a plot
# [3] = target: H4 K12ac (histone peptide array spots containing the mark); details: whole cell lysate from HEK293 cells transiently transfected; ECL plus western blot detecting reagent; parent: est. 8.1; read off a plot
# [4] = target: H4 K5ac (histone peptide array spots containing the mark); details: whole cell lysate from HEK293 cells transiently transfected; ECL plus western blot detecting reagent; parent: est. 9.4; read off a plot
# [5] = target: H4 K8ac (histone peptide array spots containing the mark); details: whole cell lysate from HEK293 cells transiently transfected; ECL plus western blot detecting reagent; parent: est. 10; read off a plot
# [6] = target: H4 R19me2s (histone peptide array spots containing the mark); details: whole cell lysate from HEK293 cells transiently transfected; ECL plus western blot detecting reagent; read off a plot
# [7] = target: H4 R24me2a (histone peptide array spots containing the mark); details: whole cell lysate from HEK293 cells transiently transfected; ECL plus western blot detecting reagent; read off a plot
# [8] = target: H4 R3me2a (histone peptide array spots containing the mark); details: whole cell lysate from HEK293 cells transiently transfected; ECL plus western blot detecting reagent; parent: est. 5.9; read off a plot
# [9] = target: H4 R3me2s (histone peptide array spots containing the mark); details: whole cell lysate from HEK293 cells transiently transfected; ECL plus western blot detecting reagent; parent: est. 5.9; read off a plot
# [10] = target: H4 S1P (histone peptide array spots containing the mark); details: whole cell lysate from HEK293 cells transiently transfected; ECL plus western blot detecting reagent; parent: est. 5.3; read off a plot
substance,measurement,setting,value
BRD4-SF-FLAG (BRD4 short isoform with a single FLAG epitope tag at the C-terminus) (from UniProt O60885-2) Y433A,other: Specificity Factor,[1],4.5
same,other: Specificity Factor,[2],4.4
same,other: Specificity Factor,[3],6.1
same,other: Specificity Factor,[4],11
same,other: Specificity Factor,[5],13
same,other: Specificity Factor,[6],3.4
same,other: Specificity Factor,[7],3.9
same,other: Specificity Factor,[8],6.7
same,other: Specificity Factor,[9],5.5
same,other: Specificity Factor,[10],3.4
